The target in test [1] is T1, HIV-1 gp120 monomer, strain HxBc2 (HIV-1, strain HxBc2), P04578. Briefly: SPR. Particulars: remark: other sources report otherwise.
Test [2] concerns the target T1, HIV-1 gp120 monomer, strain HxBc2 …. Briefly: SPR. To be noted: remark: other sources report otherwise. The source holds these as a separate data set.

B1: wild-type cyanovirin-N (WT CV–N), P81180 1-101 (natural protein)
chain: LGKFSQTCYNSAIQGSVLTSTCERTNGGYNTSSIDLNSVIENVDGSLKWQPSNFIETCRNTQLAGSSELAAECKTRAQQFVSTKINLDDHIANIDGTLKYE
In the case of B1, the Kd (commonly the concentration at which binding is half-saturated) in test [1] came to 260 nM; in test [2] it was 250 nM.

(Values after publication PMC8231982.)
